Measurements as given in patent US20070077578A1, “Diagnosis of (a risk of ) disease and monitoring of therapy” (PrimaGen Holding B.V., priority 2004, published 2007).

Tested on: AC133
Assay: AC133 expression per 10,000 cells (quantified by U1A) in patients treated with GCSF
Format: in vivo, human
Conditions: two patients treated with GCSF, compared to volunteers and all the other patients
Protocol: Isolation of nucleic acids from PBMC and NASBA amplification were performed as described in Example 2 with one modification: U1A was used instead of Beta Actin.
Two samples of patients who have been subjected to treatment with GCSF were tested. GCSF mobilizes stem cells from the bone marrow, so it is expected to find more AC133-expressing cells in the blood after a treatment with GCSF. It is clear from FIG. 16 that the AC133 expression in these two patients is much higher compared to volunteers and all the other patients.

B1: GCSF: mobilizes stem cells from the bone marrow (protein, UniProt P09919 31-207, looked up)
Granulocyte …: TPLGPASSLPQSFLLKCLEQVRKIQGDGAALQEKLVSECATYKLCHPEELVLLGHSLGIPWAPLSSCPSQALQLAGCLSQLHSGLFLYQGLLQALEGISPELGPTLDTLQLDVADFATTIWQQMEELGMAPALQPTQGAMPAFASAFQRRAGGVLVASHLQSFLEVSYRVLRHLAQP
B1 was tested, and the “AC133 expression per 10,000 cells” value was “much higher”.
